In publication PMC12661054, “The CIP2A-TOPBP1 axis facilitates mitotic DNA repair via MiDAS and MMEJ” (Nature Communications, 2025):
Square brackets hold non-standard residues; d marks the D form. Ends that are not written are not given here. fluorescein = fluorescein label on the N-terminus; pT = C[C@@H](OP(=O)(O)O)[C@H](N)C(=O)O

Biological target: T1, GST-TOPBP1(BRCT0-2 1-290) K250E (human, UniProt Q92547 1-290, K250E)
T1 construct: TOPBP1, human, residues 1-290 (BRCT0-2); purified as the wild type; no cleavage of GST described; also called BRCT 2 (K250E); source: E. coli BL21(DE3), purified (HiTrap GST, Superdex 200)
Assay: fluorescence polarisation; 100 nM fluorescein-labelled SLX4 peptide, increasing concentrations of TOPBP1 BRCT fragment; room temperature; 25 mM HEPES pH 7.5, 150 mM NaCl, 1 mM EDTA, 0.25 mM TCEP, 0.002% Tween 20; single site with non-specific component
Conditions: both partners purified

B1: Flu-SLX4_pT1260 (peptide)
peptide: fluorescein-GYGTSWLVPA[pT]PLASRSR
modifications: also: phosphothreonine at Thr1260 (position 4 or 11)
notes: residues before the SLX4 stretch, not SLX4; SLX4, human, amino acids 1253-1267, pT1260; also called fluorescein tagged SLX4 pT1260-containing peptide; pThr1260 SLX4 peptide; source: synthetic peptide
  binding result: binds
